Patent US20040086945A1, “Hairless protein-interacting partner complexes and methods thereto” (The Procter & Gamble Company, priority 2002, published 2004)

T1: mouse HRt (hairless protein aa 490-1182) (Mus musculus, UniProt Q61645)
T1 construct: HR cDNA corresponding to the C-terminal half of HR protein (aa residues 490 to 1182, hereinafter HRt); expressed in transfected cells; host or cells: Saccharomyces cerevisiae PJ69-2A transformed with BD-HRt plasmid, mated with Y187 carrying the human brain cDNA library in pACT2
T1 sequence (Q61645 490-1182): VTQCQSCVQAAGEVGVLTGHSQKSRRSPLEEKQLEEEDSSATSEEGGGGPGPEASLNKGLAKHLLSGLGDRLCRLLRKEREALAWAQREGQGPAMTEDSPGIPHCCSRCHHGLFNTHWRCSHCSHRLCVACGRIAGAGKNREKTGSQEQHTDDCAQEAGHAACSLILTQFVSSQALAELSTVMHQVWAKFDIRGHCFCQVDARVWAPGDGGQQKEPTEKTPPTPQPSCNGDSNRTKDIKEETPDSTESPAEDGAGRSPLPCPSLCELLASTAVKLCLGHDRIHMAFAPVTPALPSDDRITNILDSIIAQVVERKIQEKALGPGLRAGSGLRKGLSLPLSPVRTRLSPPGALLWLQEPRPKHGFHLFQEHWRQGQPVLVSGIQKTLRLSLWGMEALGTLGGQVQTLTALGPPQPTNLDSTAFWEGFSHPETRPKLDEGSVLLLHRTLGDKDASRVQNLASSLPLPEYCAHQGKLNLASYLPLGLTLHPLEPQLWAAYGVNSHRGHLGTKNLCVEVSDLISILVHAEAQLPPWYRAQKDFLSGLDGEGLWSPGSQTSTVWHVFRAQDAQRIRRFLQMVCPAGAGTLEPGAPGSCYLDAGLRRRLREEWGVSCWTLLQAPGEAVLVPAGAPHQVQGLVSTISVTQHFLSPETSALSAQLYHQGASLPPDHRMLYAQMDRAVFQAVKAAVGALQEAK

B1: Human alpha-tubulin: human HRt interacting partner, GenBank AF141348, SEQ ID NO:50 (protein, listed as Homo sapiens)
chain: QSLGLLDQNPHLAQELRPQIQELLHSEHLGPSELEAPAPGGSSEDKGGLQPPDSKDADTPMTLPKGSTEQDAASPEKEKMNPLEQYERKVNASVPRGFPFHSSEIQRDELAPAGTGVSREAVSGLLIMGAGGGSLIVLSMLLLRRKKPYGAISHGVVEVDPMLTLEEQQLRELQRHGYENPTYRFLEERP
B2: Human POM-ZP3: human HRt interacting partner, GenBank U10099, SEQ ID NO:36/37 (protein, listed as Homo sapiens)
chain: LEQKLALAERIRGHVLSLALQMYGCRVIQKALEFIPSDQQNEMVRELDGHVLKCVKDQNGNHVVQKCIECVQPQSLQFIIDAFKGQVFALSTHP
B3: Human pumilio(PUMH1): human HRt interacting partner, GenBank D43951, SEQ ID NO:44/45 (protein, UniProt Q14671 2-1186, looked up)
Pumilio homolog 1: SVACVLKRKAVLWQDSFSPHLKHHPQEPANPNMPVVLTSGTGSQAQPQPAANQALAAGTHSSPVPGSIGVAGRSQDDAMVDYFFQRQHGEQLGGGGSGGGGYNNSKHRWPTGDNIHAEHQVRSMDELNHDFQALALEGRAMGEQLLPGKKFWETDESSKDGPKGIFLGDQWRDSAWGTSDHSVSQPIMVQRRPGQSFHVNSEVNSVLSPRSESGGLGVSMVEYVLSSSPGDSCLRKGGFGPRDADSDENDKGEKKNKGTFDGDKLGDLKEEGDVMDKTNGLPVQNGIDADVKDFSRTPGNCQNSANEVDLLGPNQNGSEGLAQLTSTNGAKPVEDFSNMESQSVPLDPMEHVGMEPLQFDYSGTQVPVDSAAATVGLFDYNSQQQLFQRPNALAVQQLTAAQQQQYALAAAHQPHIGLAPAAFVPNPYIISAAPPGTDPYTAGLAAAATLGPAVVPHQYYGVTPWGVYPASLFQQQAAAAAAATNSANQQTTPQAQQGQQQVLRGGASQRPLTPNQNQQGQQTDPLVAAAAVNSALAFGQGLAAGMPGYPVLAPAAYYDQTGALVVNAGARNGLGAPVRLVAPAPVIISSSAAQAAVAAAAASANGAAGGLAGTTNGPFRPLGTQQPQPQPQQQPNNNLASSSFYGNNSLNSNSQSSSLFSQGSAQPANTSLGFGSSSSLGATLGSALGGFGTAVANSNTGSGSRRDSLTGSSDLYKRTSSSLTPIGHSFYNGLSFSSSPGPVGMPLPSQGPGHSQTPPPSLSSHGSSSSLNLGGLTNGSGRYISAAPGAEAKYRSASSASSLFSPSSTLFSSSRLRYGMSDVMPSGRSRLLEDFRNNRYPNLQLREIAGHIMEFSQDQHGSRFIQLKLERATPAERQLVFNEILQAAYQLMVDVFGNYVIQKFFEFGSLEQKLALAERIRGHVLSLALQMYGCRVIQKALEFIPSDQQNEMVRELDGHVLKCVKDQNGNHVVQKCIECVQPQSLQFIIDAFKGQVFALSTHPYGCRVIQRILEHCLPDQTLPILEELHQHTEQLVQDQYGNYVIQHVLEHGRPEDKSKIVAEIRGNVLVLSQHKFASNVVEKCVTHASRTERAVLIDEVCTMNDGPHSALYTMMKDQYANYVVQKMIDVAEPGQRKIVMHKIRPHIATLRKYTYGKHILAKLEKYYMKNGVDLGPICGPPNGII
B4: Human CGI-106 protein: human HRt interacting partner, GenBank AF151864, SEQ ID NO:28/29 (protein, listed as Homo sapiens)
chain: DEDTEGFGVPRHDPLPDPLKVPPPLPDPSSICMVDPEMLPPKTARQTENVSRTRKPLARPNSRAAAPKATPVAAAKTKGLAGGDRASRPLSARSEPSEKGGRAPLSRKSSTPKTATRGPSGSASSRPGVSATPPKSPVYLDLAYLPSGSSAHLVDEEFFQRVRALCYVISGQDQRKEEGMRAVLDALLASKQHWDRDLQVTLIPTFDSVAMHTWYAETHAR
B5: Human hypothalamus protein HSMNP1: human HRt interacting partner, GenBank AF220191, SEQ ID NO:30/31 (protein, listed as Homo sapiens)
chain: DRRFSRSAIPEQIISSTLSSPSSNAPDPCAKETVLSALKEKKKKRTVEEEDQIFLDGQENKRSCLVDGLTDASSAFKVPRPGPDTLQFTVDVFHFANDSRNMIYITCHLKVTLAEQDPDELNKACSFSKPSNSWFPVEGPADICQCCNKGDCGTPSHSRRQPRVVSQWSTSASRNRRHVTEEADVTVGATDLPGQEW
B6: Human VPS41: human HRt interacting partner, GenBank U87309, SEQ ID NO:46/47 (protein, UniProt P49754 1-854, looked up)
Vacuolar protein …: MAEAEEQETGSLEESTDESEEEESEEEPKLKYERLSNGVTEILQKDAASCMTVHDKFLALGTHYGKVYLLDVQGNITQKFDVSPVKINQISLDESGEHMGVCSEDGKVQVFGLYSGEEFHETFDCPIKIIAVHPHFVRSSCKQFVTGGKKLLLFERSWMNRWKSAVLHEGEGNIRSVKWRGHLIAWANNMGVKIFDIISKQRITNVPRDDISLRPDMYPCSLCWKDNVTLIIGWGTSVKVCSVKERHASEMRDLPSRYVEIVSQFETEFYISGLAPLCDQLVVLSYVKEISEKTEREYCARPRLDIIQPLSETCEEISSDALTVRGFQENECRDYHLEYSEGESLFYIVSPRDVVVAKERDQDDHIDWLLEKKKYEEALMAAEISQKNIKRHKILDIGLAYINHLVERGDYDIAARKCQKILGKNAALWEYEVYKFKEIGQLKAISPYLPRGDPVLKPLIYEMILHEFLESDYEGFATLIREWPGDLYNNSVIVQAVRDHLKKDSQNKTLLKTLAELYTYDKNYGNALEIYLTLRHKDVFQLIHKHNLFSSIKDKIVLLMDFDSEKAVDMLLDNEDKISIKKVVEELEDRPELQHVYLHKLFKRDHHKGQRYHEKQISLYAEYDRPNLLPFLRDSTHCPLEKALEICQQRNFVEETVYLLSRMGNSRSALKMIMEELHDVDKAIEFAKEQDDGELWEDLILYSIDKPPFITGLLNNIGTHVDPILLIHRIKEGMEIPNLRDSLVKILQDYNLQILLREGCKKILVADSLSLLKKMHRTQMKGVLVDEENICESCLSPILPSDAAKPFSVVVFHCRHMFHKECLPMPSMNSAAQFCNICSAKNRGPGSAILEMKK
B7: Human quinone oxidoreductase(NQO2): human HRt interacting partner, GenBank J02888, SEQ ID NO:40/41 (protein, listed as Homo sapiens)
chain: PDSNAIRPQLVPHHRTTQQEAGGTMTSATQSARAFSRAPPQTSLWPALPSSLELELLQRQPQQASLHIEVAGPIAQTRETHRELYVFIFLL
B8: Human alpha enolase: human HRt interacting partner, GenBank M14328, SEQ ID NO:32/33 (protein, listed as Homo sapiens)
chain: DGEPCFSCLYGNGPHPPAPQPSSRFNDAPAADKEPSVVQFCEFVSAPEVSRWAGPIIDVLLDYVGNVQLCSRLKEHIDSFEDWAVIKEKAEPPRPLAHLCRLRVRKAIGKYRIKLLDTLPLPGRLIRYLKYENTQ

target: T1, mouse HRt (hairless protein aa 490-1182); assay: Yeast two-hybrid screen of BD-HRt against human brain cDNA library in AD vector, lacZ coloration on QDO-Xgal plates; assay type: cell-based; conditions: BD-HRt(mouse) x human brain cDNA library in AD-vector
Source text: The present example provides for Hairless Protein (HR) interacting partners (HR-IP) using the yeast two-hybrid technology. […] Yeast cells expressing BD-HRt are mated with yeast cells pretransformed with human brain cDNA library in the activation domain (AD) vector.
Cloning of HRt into GAL4 binding domain (BD) yeast two-hybrid (Y2H) vector: The HRt insert from pET32a-HRt is excised as an Eco RI-Xho I fragment (there is a unique Xho I site just adjacent to HRt insert) and inserted at the Eco RI-Sal I sites of Y2H-BD vector pGBKT7 (Catalog No. K1612-B; a component of Matchmaker two-hybrid System 3 (Catalog No. K1612-1) BD Biosciences Clontech, Palo Alto, Calif.) to obtain pGBKT7-HRt in which HRt is fused in-frame to GAL 4 DNA BD (this plasmid is also designated BD-HRt).
Pretransformed human brain […] cDNA Library Screen for HRt interaction partners: Pretransformed human brain […] high-complexity GAL4 cDNA library that has already been amplified and introduced into yeast strain Y187 (MATα) is used to screen for HRt interacting proteins. […] The library host strain Y187 provides a third reporter gene (lacZ) for optional quantification of signal strength. The protocol as described in Clontech user manual (PT3183-1) is used. Briefly, the library is mixed with PJ69-2A strain that has been transformed with the BD-HRt plasmid in YPD medium containing adenine hemisulfate (0.004%) and kanamycin (0.005%) and incubated for 20-24 h at 30° C. The next day, the mating mixture is plated on Leu, Trp, His TDO that selects for two-hybrid interactions, and then the positive clones are screened for growth on Leu, Trp, His, Ade QDO, which is a more stringent condition for interaction. Colonies that grew well on QDO are also screened for lacZ expression by streaking on QDO-Xgal plates. Based on a visual assessment of colonies for the intensity of blue color, the clones are classified into high (H), medium (M), low (L) or very low (VL) categories.
The positive clones are expected to contain an AD-IP (interacting partner) that interacts with BD-HRt. To characterize IP, the sequence of IP is determined and matched to the human genome database. For this purpose, total DNA is isolated from the positive clones and PCR amplified with […] AD LD (long distance)-insert screening amplimers (Catalog No.9103-1; BD Biosciences Clontech, PaloAlto, Calif.). Reaction is conducted in 50 μl volume for 35 cycles using the conditions recommended with the Advantage2 PCR kit (Catalog No. K1910-1; BD Biosciences Clontech, PaloAlto, Calif.).

Molecule	XGAL (rate and intensity of coloration of colonies on Xgal)
B1	L (L = Low blue in 5-7 days)
B2	M (M = Medium blue in 3-5 days)
B3	M (M = Medium blue in 3-5 days)
B4	M (M = Medium blue in 3-5 days)
B5	M (M = Medium blue in 3-5 days)
B6	M (M = Medium blue in 3-5 days)
B7	M (M = Medium blue in 3-5 days)
B8	M (M = Medium blue in 3-5 days)
